Legend:
[1] = molecular target: TssF-Strep (EAEC) (enteroaggregative Escherichia coli (EAEC) 17-2); test: pull-down; soluble extracts of E. coli BL21(DE3) producing the TssKFGE wedge complex with TssG wild type or foot variants; TssF-Strep used to pull down TssG by affinity purification; level of copurified TssG quantified
[2] = tested on: TssK-TssFGE (TssKFGE wedge complex); test: Biolayer interferometry (BLI), TssFGE binding to biotinylated TssK; type: biochemical, enteroaggregative Escherichia coli (EAEC); settings: BLI, 47 μM TssFGE lysate, TssK preincubated with 1 mM peptide, kinetic buffer pH 7.3; mean ± SD of three independent assays
Protocol: Streptavidin-tagged TssK was purified as described above. The TssK trimer was further polished by size exclusion chromatography using a Superose 6 10/300 GL (GE Healthcare) in 50 mM HEPES (pH 7.0), 150 mM NaCl at 0.25 ml/min. For biolayer interferometry (BLI) experiments, we used high-precision Strep (SAX) biosensors from Forté Bio (number 18-5117) on the BLItz machine (Forté Bio). The trimeric ligand TssK was biotinylated using equimolar N-hydroxysuccinimide (NHS)–polyethylene glycol 4 (PEG4)–biotin (Pierce EZ-Link; 21330) in 50 mM HEPES (pH 7.0), NaCl 150 mM for 1 h at room temperature before buffer exchange in CentriPure P2 (Generon; IRL) columns against 50 mM HEPES (pH 7.0), NaCl 150 mM to remove the excess biotin. BL21(DE3) cells were used to express the interacting analytes TssG-TssF-TssE. In addition, cells containing an empty plasmid were used as a control. Cells were broken as described above, and the clarified supernatants after centrifugation for 30 min at 20,000 × g contained the control and TssFGE lysate. Streptavidin biosensors were hydrated for 10 min in HEPES buffer before binding of the biotinylated TssK. Biotinylated TssK was loaded at 1.2 μM onto the SAX biosensors for 120 s, and then the excess TssK was dissociated in HEPES buffer for 120 s. For the remaining kinetic assays, we used kinetic buffer (PBS [pH 7.3] plus 0.02% Tween 20, 0.1% bovine serum albumin [BSA], 0.05% sodium azide) (Forté Bio number 18-5032) with orbital shaking at 2,200 rpm. Kinetic buffer (KB) was used to dilute the lysates and the peptide to decrease nonspecific signals. The unbound Strep sites were blocked with 2 μM control lysate for 120 s and washed with KB for 120 s. The kinetic assays were performed using three steps with different times: baseline, 30 s; association, 120 s; and dissociation, 120 s. All the following assays were performed in triplicate. […] In the first assay, we added 47 μM lysate expressing the analytes TssG, TssF, and TssE to the bound TssK. In the second assay, we added 1 mM wild-type (WT) BCP to the bound TssK before adding 47 μM TssF-TssG-TssE. In the third assay, to validate the specificity of the WT BCP we added 1 mM mutant BCP that lacks the binding residues to the bound TssK before adding 47 μM TssF-TssG-TssE. Last, to redemonstrate the specificity of the BCP-WT, we added 1 mM randomized BCP that contains the binding residues but out of order to the bound TssK before adding 47 μM TssF-TssG-TssE.

[3] = molecular target: Strep-tagged TssK (EAEC) (enteroaggregative Escherichia coli (EAEC) 17-2); test: BLI; as a7, but 1 mM mutated BCP added to the bound TssK before 47 μM TssFGE lysate
[4] = molecular target: Strep-tagged TssK (EAEC) (enteroaggregative Escherichia coli (EAEC) 17-2); test: BLI; as a7, but 1 mM wild-type BCP added to the bound TssK before 47 μM TssFGE lysate
[5] = molecular target: Strep-tagged TssK (EAEC) (enteroaggregative Escherichia coli (EAEC) 17-2); test: BLI; as a7, but 1 mM randomized BCP added to the bound TssK before 47 μM TssFGE lysate
[6] = molecular target: Strep-tagged TssK (EAEC) (enteroaggregative Escherichia coli (EAEC) 17-2); test: BLI; biotinylated TssK loaded at 1.2 μM on streptavidin (SAX) biosensors, blocked with control lysate; 47 μM TssFGE lysate in kinetic buffer (PBS pH 7.3, 0.02% Tween 20, 0.1% BSA); no peptide
[7] = molecular target: TssK-6×His (EAEC) (enteroaggregative Escherichia coli (EAEC) 17-2); test: native gel or EMSA; clarified BL21(DE3) lysates on a native 4 to 16% gel, immunoblot with anti-His antibodies
[8] = molecular target: Strep-tagged TssK (EAEC) (enteroaggregative Escherichia coli (EAEC) 17-2); test: ITC; 25 μM TssK in the cell, 1 mM peptide in the syringe; 50 mM HEPES pH 7.0, 150 mM NaCl, 25°C; One Set of Sites model

## Flag-tagged TssG (EAEC) (natural protein)
[1]
  amount of TssG copurified using TssF-based pulldown: 74.8%

## Flag-tagged TssG with the foot 1 domain deleted (natural protein)
[1]
  amount of TssG copurified using TssF-based pulldown: 4.6%

## Flag-tagged TssG with the foot 2 domain deleted (natural protein)
[1]
  amount of TssG copurified using TssF-based pulldown: 1.1%

## SRPVAG-SRPVAG-SRPVAG (head to tail) [mutated BCP]
[2]
  maximum binding average response of TssFGE to TssK at 150 s in presence of peptide: 0.169 ± 0.016 nm

## SVRMPG-SPMRVG-SMVRPG (head to tail) [randomized BCP, randomized control version (SVRMPG-SPMRVG-SMVRPG)]
[2]
  maximum binding average response of TssFGE to TssK at 150 s in presence of peptide: 0.160 ± 0.028 nm

## TssF-TssG-TssE (EAEC) (complex)
[3]
  maximum binding average response at 150 s, TssK preincubated with 1 mM mutated BCP: 0.169 nm
[4]
  maximum binding average response at 150 s, TssK preincubated with 1 mM wild-type BCP: 0.121 nm
[5]
  maximum binding average response at 150 s, TssK preincubated with 1 mM randomized BCP: 0.16 nm
[6]
  maximum binding average response at 150 s association: 0.189 nm

## TssK-6×His (EAEC) (natural protein)
[7]
  stoichiometry N: 3

## SRPVMGSRPVMGSRPVMG (head-to-tail cyclization) [biomimetic cyclic peptide (BCP)]
[8]
  Kd: 60 µM
